Patent US20260201045A1 (Regeneron, published 2026)

Assays:
[1] = molecular target: T1, full length human CNTFR (hCNTFR, amino acids 1-372, UniProtKB/Swiss-Prot Accession #P26992) (human, UniProt P26992 23-342); test: flow cytometry on HEK293/hCNTFR cells
T1 construct: also called HEK293/hCNTFR; CNTFR endogenously expressed on IMR-32/STAT3-luc cells
T1 sequence: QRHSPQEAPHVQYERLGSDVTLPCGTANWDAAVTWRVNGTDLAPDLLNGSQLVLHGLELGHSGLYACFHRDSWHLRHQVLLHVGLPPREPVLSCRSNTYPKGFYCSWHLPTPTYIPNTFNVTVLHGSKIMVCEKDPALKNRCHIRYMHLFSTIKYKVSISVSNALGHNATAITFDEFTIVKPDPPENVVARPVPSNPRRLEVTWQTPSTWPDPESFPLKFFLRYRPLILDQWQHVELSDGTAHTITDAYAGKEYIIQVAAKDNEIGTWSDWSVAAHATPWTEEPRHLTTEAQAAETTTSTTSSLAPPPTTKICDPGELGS
Experimental: (§1) To assess binding of the anti-CNTFR antibodies to CNTFR receptors expressed on the cell surface, each of the HEK293/CNTFR cells listed above or HEK293 parental cells were diluted to 5×10⁵ cells/well in 96-well v-bottom plates. […] Cells were fixed using BD CytoFix™ (Becton Dickinson, #554655), filtered, and then analyzed on IQuePlus® Flow Cytometer (Intellicyt®). Geometric Mean Fluorescent Intensity (MFI) values were calculated by Forecyt Software and plotted in GraphPad Prism using a 4-parameter logistic equation over the 8-point dose-response curve to obtain EC₅₀ values. […] The secondary only condition was excluded from the EC₅₀ calculation.

[2] = molecular target: T2, full length mouse CNTFR (mCNTFR, amino acids 1-372, UniProtKB/Swiss-Prot Accession #088507) (mouse, UniProt O88507 23-342); test: flow cytometry on HEK293/mCNTFR cells
T2 construct: whole, on cells; also called HEK293/mCNTFR
T2 sequence (looked up): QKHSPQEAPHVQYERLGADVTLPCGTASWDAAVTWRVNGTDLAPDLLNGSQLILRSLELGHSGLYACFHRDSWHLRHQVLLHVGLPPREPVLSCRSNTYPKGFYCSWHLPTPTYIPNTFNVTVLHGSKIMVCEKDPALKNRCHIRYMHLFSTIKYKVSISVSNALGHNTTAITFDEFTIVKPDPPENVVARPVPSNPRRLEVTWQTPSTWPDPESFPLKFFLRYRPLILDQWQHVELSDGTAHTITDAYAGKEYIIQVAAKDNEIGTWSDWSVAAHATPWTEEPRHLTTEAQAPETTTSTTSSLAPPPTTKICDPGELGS
Experimental: as §1

[3] = molecular target: T3, human CNTFR extracellular domain (Q23-V105)/mCNTFR (G106-S342) expressed with a C-terminal … (human/mouse chimera, UniProt P26992 23-342); test: SPR Biacore S200, antigen captured by anti-myc, mAb injected, 25 C
T3 construct: Human/mouse chimeric CNTFR domain protein; also called hCNTFR (Q23-V105)/mCNTFR (G106-S342).mmh; hCNTFR (Q23-V105)_mCNTFR (G106-S342).mmh
T3 chain: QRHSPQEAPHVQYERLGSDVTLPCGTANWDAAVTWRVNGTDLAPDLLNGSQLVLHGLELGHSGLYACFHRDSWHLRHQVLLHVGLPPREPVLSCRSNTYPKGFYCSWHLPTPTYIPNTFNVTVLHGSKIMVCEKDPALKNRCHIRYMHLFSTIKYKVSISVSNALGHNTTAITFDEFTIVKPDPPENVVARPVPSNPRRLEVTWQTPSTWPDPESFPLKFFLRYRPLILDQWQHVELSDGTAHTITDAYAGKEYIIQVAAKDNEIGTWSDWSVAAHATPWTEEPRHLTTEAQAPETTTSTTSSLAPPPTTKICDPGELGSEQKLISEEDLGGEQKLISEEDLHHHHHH

[4] = molecular target: T4, mouse CNTFR extracellular domain expressed with a C-terminal myc-myc-hexahistidine tag (mouse, UniProt O88507 23-342); test: SPR Biacore 4000, mAb captured by anti-human Fc, antigen injected, 25 C
T4 construct: The entry holds the tag as well; also called mCNTFR-mmh
Experimental: (§2) Equilibrium dissociation constants (KD) for CNTFR binding to purified anti-CNTFR monoclonal antibodies were determined using a real-time surface plasmon resonance (SPR) based Biacore 4000 biosensor. All binding studies were performed in 10 mM HEPES, 150 mM NaCl, 3 mM EDTA, and 0.05% v/v surfactant Tween-20, pH 7.4 (HBS-ET) running buffer at 25° C. and 37° C. The Biacore CM4 sensor surface was first derivatized by amine coupling with a monoclonal mouse anti-human Fc antibody (REGN2567) to capture anti-CNTFR monoclonal antibodies. Different concentrations of CNTFR reagents, human CNTFR extracellular domain expressed with a C-terminal myc-myc-hexahistidine tag (hCNTFR-mmh; SEQ ID NO:42), monkey CNTFR extracellular domain expressed with a C-terminal myc-myc-hexahistidine tag (mfCNTFR-mmh; SEQ ID NO:43), mouse CNTFR extracellular domain expressed with a C-terminal myc-myc-hexahistidine tag (mCNTFR-mmh; SEQ ID NO:44), and human CNTFR extracellular domain expressed with a C-terminal mouse IgG2a Fc tag (hCNTFR-mFc; SEQ ID NO: 45), at concentrations ranging from 6.25 nM to 100 nM in a series of 4-fold dilutions prepared in HBS-ET running buffer were injected at a flow rate of 30 μL/min for 2.5 minutes. The dissociation of different CNTFR reagents bound to anti-CNTFR monoclonal antibodies was monitored for 10 minutes in HBS-ET running buffer. At the end of each cycle, the anti-CNTFR monoclonal antibodies capture surface was regenerated using a 12 sec injection of 20 mM H3PO4. The association rate (ka) and dissociation rate (kd) were determined by fitting the real-time specific binding sensorgrams to a 1:1 binding model with mass transport limitation using Scrubber 2.0c curve-fitting software. Binding dissociation equilibrium constant (KD) and dissociative half-life (t½) were calculated from the kinetic rates as: […]

[5] = molecular target: T5, human CNTFR extracellular domain expressed with a C-terminal mouse IgG2a Fc tag (human); test: as above
T5 construct: also called hCNTFR-mFc; dimeric hCNTFR-mFc
T5 chain: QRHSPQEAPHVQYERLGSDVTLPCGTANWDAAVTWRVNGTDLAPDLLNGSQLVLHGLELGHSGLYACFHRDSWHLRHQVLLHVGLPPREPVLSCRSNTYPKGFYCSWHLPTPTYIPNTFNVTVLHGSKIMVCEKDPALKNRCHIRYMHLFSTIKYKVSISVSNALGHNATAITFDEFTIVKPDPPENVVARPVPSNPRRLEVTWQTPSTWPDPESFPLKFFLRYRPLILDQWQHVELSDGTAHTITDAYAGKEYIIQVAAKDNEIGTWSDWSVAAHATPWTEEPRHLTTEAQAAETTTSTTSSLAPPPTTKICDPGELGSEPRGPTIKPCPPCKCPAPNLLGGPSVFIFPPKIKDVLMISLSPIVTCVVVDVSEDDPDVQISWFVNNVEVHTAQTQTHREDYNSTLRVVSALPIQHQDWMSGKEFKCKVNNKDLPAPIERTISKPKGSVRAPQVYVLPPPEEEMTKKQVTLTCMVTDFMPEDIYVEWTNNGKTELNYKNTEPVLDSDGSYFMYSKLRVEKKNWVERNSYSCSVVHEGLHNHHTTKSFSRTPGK
Experimental: as §2

[6] = molecular target: T5, human CNTFR extracellular domain …; test: SPR Biacore 4000, mAb captured by anti-human Fc, antigen injected, 37 C
Experimental: as §2

[7] = molecular target: T6, human CNTFR extracellular domain expressed with a C-terminal myc-myc-hexahistidine tag (human, UniProt P26992 23-342); test: SPR Biacore S200, antigen captured by anti-myc, 100 nM mAb injected, 25 C
T6 construct: The entry holds the tag as well; also called hCNTFR-mmh; hCNTFR.mmh

[8] = molecular target: T3, human CNTFR extracellular domain …; test: as above
[9] = molecular target: T7, human CNTFR extracellular domain (Q23-D205)/mCNTFR (P206-S342) expressed with a C-terminal … (human/mouse chimera, UniProt P26992 23-342); test: as above
T7 construct: Human/mouse chimeric CNTFR domain protein; also called hCNTFR (Q23-D205)/mCNTFR (P206-S342).mmh; hCNTFR (Q23-D205)_mCNTFR(P206-S342).mmh

B1: mAb25311P2 (antibody, human IgG4 S228P, kappa, V domains shown)
VH: QVQLVESGGGVVQPGRSLRLSCVASGFTFSTSVMHWVRQAPGKGLEWVANIWYDGINKFYVDSVKGRFTISRDNSKNTLYLQMNSLRAEDTAVYYCAREFWSAFDLWGQGTMVTVSS
VL: not shown
EC50 [1]: 4.33 nM
Max. Fold Binding [1]: 510 fold over secondary antibody alone
binding result [2]: no binding (tested: 375 nM)
binding result [3]: no binding (tested: 100 nM)
binding result [4]: no binding (tested: 100 nM)
Kd [5]: 7.22 nM
koff [5]: 0.000125 s⁻¹
kon [5]: 17300 M⁻¹ s⁻¹
t½ [5]: 93 min
Kd [6]: 27.2 nM
koff [6]: 0.000784 s⁻¹
kon [6]: 28800 M⁻¹ s⁻¹
t½ [6]: 15 min
100 nM mAb Bound (RU) [7]: 80 RU
100 nM mAb Bound (RU) [8]: 1 RU
100 nM mAb Bound (RU) [9]: 89 RU
